Experimental data reported in patent publication US20200399381A1 (I MAB BIOPHARMA US, published 2020).
Residue numbers refer to the chain shown, from its start.

T1: human IFNAR-1 on cells (human, UniProt P17181 28-557)
T1 sequence (looked up): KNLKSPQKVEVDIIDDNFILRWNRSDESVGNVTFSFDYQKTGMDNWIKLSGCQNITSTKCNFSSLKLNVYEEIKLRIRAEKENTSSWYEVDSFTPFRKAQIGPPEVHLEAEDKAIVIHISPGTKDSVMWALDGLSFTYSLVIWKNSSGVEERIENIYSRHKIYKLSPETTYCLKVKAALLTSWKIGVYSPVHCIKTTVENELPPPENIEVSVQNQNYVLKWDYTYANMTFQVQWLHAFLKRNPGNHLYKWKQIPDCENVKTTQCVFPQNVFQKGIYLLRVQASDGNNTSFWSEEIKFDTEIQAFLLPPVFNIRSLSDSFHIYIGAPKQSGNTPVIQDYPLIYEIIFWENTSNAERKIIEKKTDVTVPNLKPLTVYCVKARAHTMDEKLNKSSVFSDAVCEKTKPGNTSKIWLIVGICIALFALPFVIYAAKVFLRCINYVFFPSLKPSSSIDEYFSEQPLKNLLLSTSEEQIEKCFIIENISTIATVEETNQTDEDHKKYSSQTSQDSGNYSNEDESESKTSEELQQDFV

T2: recombinant His-tagged human IFNAR-1-ECD protein (human, UniProt P17181 28-436)
T2 construct: extracellular domain; the Biacore text says His-tagged human IFNAR-1-ECD; also called His-tagged IFNAR-1; hIFNAR-1 protein; not shown: His tag
T2 sequence (looked up): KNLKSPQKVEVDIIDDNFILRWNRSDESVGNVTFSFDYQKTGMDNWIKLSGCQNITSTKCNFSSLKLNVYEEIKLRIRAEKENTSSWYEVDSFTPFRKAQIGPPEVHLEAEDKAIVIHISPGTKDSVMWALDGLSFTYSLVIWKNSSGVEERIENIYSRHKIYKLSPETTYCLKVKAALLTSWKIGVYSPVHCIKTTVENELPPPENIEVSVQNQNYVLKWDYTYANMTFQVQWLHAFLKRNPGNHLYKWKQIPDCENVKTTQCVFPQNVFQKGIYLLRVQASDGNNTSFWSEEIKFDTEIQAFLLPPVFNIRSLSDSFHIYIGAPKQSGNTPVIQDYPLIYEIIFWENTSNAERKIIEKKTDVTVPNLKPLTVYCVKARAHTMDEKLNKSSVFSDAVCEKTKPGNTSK

T3: human IFNAR-1 protein (form not stated) (human, UniProt P17181 28-436, limits assumed)
T3 construct: bispecific ELISA
T3 sequence (looked up): T2 sequence (looked up)

B1: 260H8 (antibody, V domains shown)
VH: EVQLQESGPGLAKPSQTLSLTCSVTGYSITSDYWNWIRKFPGNKLEYMGYISYSGSIYYNPSLKSRISITRDTSKNQYYLQLNSVTNEDTATYYCARSGGMYYFDYWGQGTTLTVSS
VL: DIQMTQSPASLSASVGETVTITCRASGNIHNYLAWYQQKQGKSPQLLVYNAKTLEDGVPSRFSGSGSGTQYSLKINSLQPEDFGSYYCQHFWSIPPTFGSGTKLEIK
notes: Hybridoma-derived monoclonal antibody
B2: 268E9 (antibody, V domains shown)
VH: B1 VH with D72A
VL: B1 VL
notes: as for B1
B3: 293H10 (antibody, V domains shown)
VH: B1 VH with S56N, I57T, Y58D, I67F, Y78F, N87T, G99E, Y103F
VL: B1 VL with T20S, Q37H, E55A, I94T
notes: as for B1
B4: 269A7 (antibody, V domains shown)
VH: B1 VH with S56T
VL: B1 VL
notes: as for B1
B5: 8G11 humanized VH3 + VL3 (antibody, V domains shown)
VH: QVQLVQSGAEVVKPGASVKVSCKGSGFNIKDYYMHWVKQAPGQGLEWIGRIDPEDAETKYAPKFQGRVTITADTSTSTVYLELSSLRSEDTAVYYCARGGNFYVMDYWGQGTLVTVSS
VL: DIQLTQSPSFLSTSVGDRVTITCKASQNVGTNVVWYQQKPGKSPKVLIYSASYRVSGVPSRFSGSGSGTEFTLIISSVQPEDFATYFCQQKNNYPYTFGQGTKLEIK
notes: Humanized IgG expressed in HEK293; also called VH3 + VL3 (8G11)
B6: 8G11 humanized VH3 + VL2 (antibody, V domains shown)
VH: B5 VH
VL: B5 VL with V78L, F87Y
notes: Humanized IgG expressed in HEK293; also called VH3 + VL2 (8G11)
B7: 8G11 humanized VH4 + VL1 (antibody, V domains shown)
VH: B5 VH with V20L, V68A, V79A
VL: B5 VL with T13A, S43A, V46L, I74T, V78L, F87Y
notes: Humanized IgG expressed in HEK293; also called VH4 + VL1 (8G11)
B8: 8G11 humanized VH2 + VL3 (antibody, V domains shown)
VH: B5 VH with K38R, I70M, L81M
VL: B5 VL
notes: Humanized IgG expressed in HEK293; also called VH2 + VL3 (8G11)
B9: 8G11 humanized VH1 + VL2 (antibody, V domains shown)
VH: B5 VH with V12K, G24A, K38R, I48M, I70M, A72R, L81M
VL: B5 VL with V78L, F87Y
notes: Humanized IgG expressed in HEK293; also called VH1 + VL2 (8G11)
B10: 8G11 humanized VH1 + VL3 (antibody, V domains shown)
VH: B5 VH with V12K, G24A, K38R, I48M, I70M, A72R, L81M
VL: B5 VL
notes: Humanized IgG expressed in HEK293; also called VH1 + VL3 (8G11)
B11: 8G11 humanized VH3 + VL1 (antibody, V domains shown)
VH: B5 VH
VL: B5 VL with T13A, S43A, V46L, I74T, V78L, F87Y
notes: Humanized IgG expressed in HEK293; also called VH3 + VL1 (8G11)
B12: 8G11 humanized VH1 + VL4 (antibody, V domains shown)
VH: B5 VH with V12K, G24A, K38R, I48M, I70M, A72R, L81M
VL: B5 VL with L4M, I21V
notes: Humanized IgG expressed in HEK293; also called VH1 + VL4 (8G11)
B13: 8G11 humanized VH2 + VL4 (antibody, V domains shown)
VH: B5 VH with K38R, I70M, L81M
VL: B5 VL with L4M, I21V
notes: Humanized IgG expressed in HEK293; also called VH2 + VL4 (8G11)
B14: 8G11 humanized VH3 + VL4 (antibody, V domains shown)
VH: B5 VH
VL: B5 VL with L4M, I21V
notes: Humanized IgG expressed in HEK293; also called VH3 + VL4 (8G11)
B15: 8G11 humanized VH4 + VL4 (antibody, V domains shown)
VH: B5 VH with V20L, V68A, V79A
VL: B5 VL with L4M, I21V
notes: Humanized IgG expressed in HEK293; also called VH4 + VL4 (8G11)
B16: 8G11 humanized VH4 + VL2 (antibody, V domains shown)
VH: B5 VH with V20L, V68A, V79A
VL: B5 VL with V78L, F87Y
notes: Humanized IgG expressed in HEK293; also called VH4 + VL2 (8G11)
B17: 485G10 humanized VH0 + VL1 (antibody, V domains shown)
VH: QVQLVQSGAEVKKPGASVKVSCKASGFNIKDYYIHWVRQAPGQGLEWMGRIDPEDAETKYAPKFQGRVTMTRDTSISTAYMELSRLRSDDTVVYYCARYHGYWALDYWGQGTLVTVSS
VL: DIQMTQSPSSLSASVGDRVTITCKTSQNVGTNVAWFQQKPGKAPKSLIYSTSYRYSGVPSRFSGSGSGTDFTLTISSLQPEDFATYYCHQYFSYPYTFGPGTKVDIK
notes: Humanized IgG expressed in HEK293; also called VH0 + VL1 (485G10)
B18: 485G10 humanized VH3 + VL1 (antibody, V domains shown)
VH: B17 VH with V20L, A24G, R38K, M48I, V68A, M70I, R72A, M81L, A97G
VL: B17 VL
notes: Humanized IgG expressed in HEK293; also called VH3 + VL1 (485G10)
B19: 485G10 humanized VH2 + VL1 (antibody, V domains shown)
VH: B17 VH with V20L, R38K, M48I, R72A, A97G
VL: B17 VL
notes: Humanized IgG expressed in HEK293; also called VH2 + VL1 (485G10)
B20: 485G10 humanized VH3 + VL4 (antibody, V domains shown)
VH: B17 VH with V20L, A24G, R38K, M48I, V68A, M70I, R72A, M81L, A97G
VL: B17 VL with A13T, I21V, F36Y, S46P, L78V, V104L
notes: Humanized IgG expressed in HEK293; also called VH3 + VL4 (485G10)
B21: 485G10 humanized VH0 + VL2 (antibody, V domains shown)
VH: B17 VH
VL: B17 VL with A13T, F36Y, S46P
notes: Humanized IgG expressed in HEK293; also called VH0 + VL2 (485G10)
B22: 485G10 humanized VH3 + VL3 (antibody, V domains shown)
VH: B17 VH with V20L, A24G, R38K, M48I, V68A, M70I, R72A, M81L, A97G
VL: B17 VL with A13T, F36Y, S46P, L78V, V104L
notes: Humanized IgG expressed in HEK293; also called VH3 + VL3 (485G10)
B23: 485G10 humanized VH3 + VL2 (antibody, V domains shown)
VH: B17 VH with V20L, A24G, R38K, M48I, V68A, M70I, R72A, M81L, A97G
VL: B17 VL with A13T, F36Y, S46P
notes: Humanized IgG expressed in HEK293; also called VH3 + VL2 (485G10)
B24: 485G10 humanized VH2 + VL4 (antibody, V domains shown)
VH: B17 VH with V20L, R38K, M48I, R72A, A97G
VL: B17 VL with A13T, I21V, F36Y, S46P, L78V, V104L
notes: Humanized IgG expressed in HEK293; also called VH2 + VL4 (485G10)
B25: 485G10 humanized VH1 + VL1 (antibody, V domains shown)
VH: B17 VH with R72A
VL: B17 VL
notes: Humanized IgG expressed in HEK293; also called VH1 + VL1 (485G10)
B26: 485G10 humanized VH0 + VL4 (antibody, V domains shown)
VH: B17 VH
VL: B17 VL with A13T, I21V, F36Y, S46P, L78V, V104L
notes: Humanized IgG expressed in HEK293; also called VH0 + VL4 (485G10)
B27: 485G10 humanized VH0 + VL3 (antibody, V domains shown)
VH: B17 VH
VL: B17 VL with A13T, F36Y, S46P, L78V, V104L
notes: Humanized IgG expressed in HEK293; also called VH0 + VL3 (485G10)
B28: 485G10 humanized VH2 + VL2 (antibody, V domains shown)
VH: B17 VH with V20L, R38K, M48I, R72A, A97G
VL: B17 VL with A13T, F36Y, S46P
notes: Humanized IgG expressed in HEK293; also called VH2 + VL2 (485G10)

The binders below were run against T1, human IFNAR-1 on cells (assay: cell-based or functional assay).

| Binder | EC50 (nM), inhibition of IFNα2b-induced SEAP reporter in HEK-Blue IFNα/β cells [nM] |
| --- | --- |
| B1 | 5.07 |
| B2 | 3.87 |
| B3 | 1.28 |
| B4 | 6.71 |

What follows are binders tested against T2, recombinant His-tagged human … (assay: ELISA, coated His-tagged IFNAR-1).
Method: This example tested the binding properties of the anti-IFNAR-1 mouse antibodies to the human IFNAR-1 proteins by ELISA assay. In short, His-tagged IFNAR-1 was coated at 0.5 μg/ml overnight and then blocked by 5% BSA in PBS. Serial diluted anti-IFNAR-1 antibodies were incubated with the coated antigen for 1 h at room temperature. The resulting plates were washed with PBS/T and incubated with goat anti-mouse IgG-HRP for 1 h at room temperature. The plates were developed with TMB substrate and analyzed by spectrophotometer at OD 450-630 nm.

| Binder | EC50 [nM] |
| --- | --- |
| B1 | 0.055 |
| B2 | 0.088 |
| B3 | 0.097 |
| B4 | 0.476 |

What follows are binders tested against T3, human IFNAR-1 protein (form not stated) (assay: affinity ranking of expressed humanized 8G11 IgGs (method not named)).

| Binder | Kd [nM] | koff [s⁻¹] | kon [M⁻¹ s⁻¹] |
| --- | --- | --- | --- |
| B5 | 0.364 | 0.00011 | 301000 |
| B6 | 0.389 | 0.000111 | 284000 |
| B7 | 0.489 | 9.94e-05 | 203000 |
| B8 | 0.364 | 9.65e-05 | 265000 |
| B9 | 0.765 | 0.000127 | 167000 |
| B10 | 0.865 | 0.0002 | 231000 |
| B11 | 0.413 | 0.000106 | 256000 |
| B12 | 0.836 | 0.000141 | 169000 |
| B13 | 0.388 | 0.000102 | 262000 |
| B14 | 0.401 | 0.000113 | 281000 |
| B15 | 0.372 | 0.000105 | 283000 |
| B16 | 0.332 | 9.69e-05 | 292000 |

These binders were tested against T3, human IFNAR-1 protein (form not stated) (assay: affinity ranking of expressed humanized 485G10 IgGs (method not named)).

| Binder | Kd [nM] | koff [s⁻¹] | kon [M⁻¹ s⁻¹] |
| --- | --- | --- | --- |
| B17 | 9.33 | 0.00475 | 509000 |
| B18 | 19.1 | 0.0185 | 971000 |
| B19 | 20.5 | 0.00663 | 323000 |
| B20 | 0.766 | 0.000271 | 354000 |
| B21 | 1.57 | 0.000439 | 279000 |
| B22 | 0.841 | 0.000279 | 332000 |
| B23 | 0.864 | 0.000264 | 306000 |
| B24 | 0.99 | 0.0003 | 303000 |
| B25 | 3.14 | 0.00103 | 328000 |
| B26 | 1.25 | 0.000318 | 255000 |
| B27 | 1.07 | 0.000316 | 294000 |
| B28 | 0.906 | 0.000298 | 329000 |
